Experimental data as given in publication PMC11024254, “The DmsABC S-oxide reductase is an essential component of a novel, hypochlorite-inducible system of extracellular stress defense in Haemophilus influenzae” (Frontiers in Microbiology, 2024).

Columns and labels:
[1] = system: [O-][n+]1cccnc1; assay: purified protein; conditions: purified enzyme, 0.2 mM methyl viologen, 0.3 mM dithionite, 20 mM sodium phosphate pH 6.8, 37°C
[2] = system: NC(=O)c1ccc[n+]([O-])c1; assay: purified protein; conditions: purified enzyme, 0.2 mM methyl viologen, 0.3 mM dithionite, 20 mM sodium phosphate pH 6.8, 37°C

With “MtsZ (HiMtsZ) (Haemophilus influenzae Rd KW20)” the Km [1] was 35 ± 8 µM, the kcat [1] was 33.2 ± 2.7 s⁻¹ and the Km [2] was 46 ± 8 µM. For the same substance, the kcat [2] was 93 ± 5 s⁻¹.
